The values below come from article PMC4287557 (PLoS Pathogens, 2015).

One experiment concerns the target JRFL gp120 monomer (HIV-1 subtype B strain JRFL, UniProt Q75760). In words: BLI. The note with it: both partners purified.
Another experiment has as its target 16055 gp120 monomer (HIV-1 subtype C strain 16055). In words: BLI. Conditions: both partners purified.

B1: VRC01 IgG (antibody, V domains shown)
VH: QVQLVQSGGQMKKPGESMRISCRASGYEFIDCTLNWIRLAPGKRPEWMGWLKPRGGAVNYARPLQGRVTMTRDVYSDTAFLELRSLTVDDTAVYFCTRGKNCDYNWDFEHWGRGTPVIVSS
VL: EIVLTQSPGTLSLSPGETAIISCRTSQYGSLAWYQQRPGQAPRLVIYSGSTRAAGIPDRFSGSRWGPDYNLTISNLESGDFGVYYCQQYEFFGQGTKVQVD
notes: also called bNAb VRC01
Consider B1, for which the binding result in the experiment with JRFL gp120 monomer and with 16055 gp120 monomer was “binds” each time.
